The source of these data is patent publication US7550425B2, “Diuretic peptide conjugates” (Zealand Pharma A/S, priority 2000, dated 2009).

Where two headings read alike, the source gives them in different places. Peptide text beside a SMILES is read from it.

One series addresses hORL1 receptor (Homo sapiens, UniProt P41146). The experiment in a line: Binding to human ORL1 receptor expressed in CHO cells. Further details: expressed in transfected cells; host or cells: CHO.
Series [1] deals with conscious Sprague Dawley rats. Format: in vivo, rat. The method, then: In the conscious rat model, the animal is chronically instrumented with catheters in the urinary bladder, the femoral artery, and the femoral vein. The animal receives a continuous i.v. infusion with isotonic saline, 50 μl/min. Urine is collected in vials in consequtive urine collection periods of 10 min each. After two control periods, the test compound is administered and fractionated urine collections (10 min periods) are continued for at least two hours. Urinary concentrations of sodium and potassium are determined by flame photometry (Instrumentation Laboratory 943) using caesium as internal standard.
The diuretic effect of the peptide conjugates of the invention has been tested in conscious rats, where Compound 1 elicits a powerful and sustained diuretic response. Cardiovascular and renal responses produced by i.v. infusion of nociceptin (Phoenix Pharmaceuticals) and Compound 1 have been studied in conscious Sprague Dawley rats. The results are shown in FIGS. 2 to 8 wherein HR is heart rate, MAP is mean arterial pressure, V is urine flow rate, UNaV is urinary excretion rate of sodium, RSNA is renal sympathetic nerve activity expressed as % of the control level, Cosm is the osmolar clearance, and CH2O is free water clearance.
Furthermore, the effects of i.v. bolus administration of nociceptin (30 and 100 nmol/kg, Phoenix Pharmaceuticals) and nociceptin-NH2 (30 nmol/kg) on heart rate, arterial pressure and RSNA were studied in groups of 6 conscious Sprague-Dawley rats.
[…] After stabilization of urine flow rate and urinary sodium excretion, urine was collected during a 20-min control period. After this, the i.v. bolus injection was given or the i.v. infusate was switched to a solution of isotonic saline containing Compound 1 (i.v. infusion experiments). From the time of drug administration, experimental urine samples (10-min consecutive periods) were taken for 80 min.
One hour prior to the start of each experiment a food pellet (standard rodent chow) was placed within access to the rat though a hole in the rat holder. The number and time of feeding responses (i.e., times in which the rat began to eat the food pellet) was recorded before, and after drug administration. If a positive feeding response was observed, the pellet was removed from the restrainer to prevent feeding-induced alterations in heart rate and/or mean arterial pressure. At 10-min intervals, the food pellet was presented to the rat to determine the duration of the feeding response.

The subject of another series is mouse vas deferens. The experiment in a line: Mouse vas deferens assay: inhibition of electrically-induced contraction. Conditions: cumulative addition; data not shown. From the text: The compounds of the present invention are pharmacologically active, e.g. as nociceptin agonists or partial agonists, and a useful method of showing activity is described by Hughes J., Kosterlitz H. W., Leslie F. M.: Effect of morphine on adrenergic transmission in the mouse vas deferens. Assessment of agonist and antagonist potencies of narcotic analgesics^[4]. The isolated electrically stimulated mouse vas deferens preparation has been widely used to evaluate the functional pharmacological actions of opioid agonists and antagonists in vitro^[5].
(§1) The vas deferens from male NMRI albino mice weighing 30-40 g were placed in a SCHULER organ bath Type 809, Hugo Sachs Elektronik, Germany, and perfused with a 37° C., modified Krebs solution (NaCl 6,9 g/L, KCl 0.35 g/L, KH2PO4 0.16 g/L, NaHCO3 2.1 g/L, Glucose H2O 2.0 g/L, CaCl2 2.52 mL/L). The solution was gassed with carbogen (95% O2 and 5% CO2) throughout the experiment. The tissue was electrically stimulated through two silver electrodes directly in the organ bath using a HSE Stimulator I Type 215. Stimulation of the tissue was performed by applying a supramaximal voltage (15 Volts) in trains of 10 square pulses every 60 s, each of 1 ms duration with a frequency of […]. Concentration-response curves were performed by adding test substances that relax mouse vas deferens smooth muscles cumulatively to the organ baths. The test substances used in the assay were nociceptin in an isotonic saline solution, Compound 1 (as the trifluoroacetate in an isotonic saline solution), Compound 2 (as the trifluoroacetate in an isotonic saline solution), and the hexapeptide Ac-RYYRWK-NH2 (SEQ ID NO: 1) (as the trifluoroacetate in an isotonic saline solution).

For series [2], the system named is nociceptin-induced smooth muscle relaxation in mouse vas deferens. The experiment in a line: Mouse vas deferens assay: antagonism of nociceptin-induced relaxation (Schild pA2). Conditions: Schild equation; antagonism of nociceptin-induced relaxation; n = 4. The method, then:
as §1
The effects of Ac-RYYRWK-NH2 (SEQ ID NO: 1) and Compound 1 on nociceptin-induced relaxation in the mouse vas deferens assay were also tested. […] Using the Schild equation ^[7], the pA2 values which indicates affinity of a compound as an antagonist were calculated.

Series [3] in a line: In vitro stability in heparin stabilised mouse plasma. It is filed as in vitro ADME. Conditions: heparinised mouse plasma, 37° C., read-out: half-life t½ of degradation. As for the experimental part:
Degradation of peptides is almost exclusively seen in the presence of enzymes, e.g. in the bloodstream. An important feature of a putative drug is whether it is quickly degraded in vivo or whether it is able to conduct its effects over a longer period of time. To be able to examine the stability of the peptide conjugates of the present invention degradation was tested in heparin stabilised mouse plasma (obtained from Harlan Seralab, UK).
The stability studies were run in triplicate. 100 μL of a 1 mg/mL solution of the test compound (peptide conjugate) was added to an Eppendorf tube, containing 900 μL plasma, incubated at 37° C. Immediately after addition, a sample of 100 μL was removed and added to an Eppendorf tube, containing 10 μL of extraction solution (50% TFA (trifluoroacetic acid) in MeCN, v/v). This sample constitutes t=0. […] The samples are centrifuged at 20,000×g, and the supernatant was transferred to vials and analysed by high-performance liquid chromatography (HPLC).
The analysis was performed on a HP1100 HPLC with a quaternary pump. The column used was a Vydac 201SP5215, and the apparatus comprises an autosampler, a column oven, a variable UV detector and a fluorescence detector. […] These values were transferred to Microsoft Excel, where half-lives (t½) and rate constant (kobs) for Ac-RYYRWK-NH2 (SEQ ID NO: 1) and Compound 1 were determined by fitting to the equation.

A short description of series [4]: In vitro stability in heparinised human plasma. It is filed as in vitro ADME. The method, then:
In addition, the degradation of Compound 1 of the invention has been studied in heparinised human plama.
The stability of peptides is analysed in human plasma. The peptides are incubated at 37° C. in plasma and samples taken at approx. 8 regular intervals between t=0 and t=390 min for Compound 1 and nociceptin-NH2, and at 9 intervals between t=0 and t=32 min for Compound CE1 are analysed by HPLC. […] This is done by subsequent injections of the drug, plasma, and a co-injection with the drug and the plasma, followed by optimisation of the LC method parameters until a satisfactory separation is obtained. Three parallel experiments are performed for each plasma type. 100 μl of peptide is mixed with 900 μl plasma at t=0 and incubated at 37° C. (drug-plasma mixture conc. 0.1 mg/ml). Samples of 100 μl of the drug-plasma mixture are removed at appropriate intervals and the degradation stopped by precipitation of the sample with 10 μl MeCN:TFA 50:50 v/v. A control plasma sample without the drug treated in the same manner is also taken. The plasma samples are centrifuged for 15 min. at 12,000 rpm (Eppendorf centrifuge) at ambient temperature. The resulting supernatant solution is transferred to 300 μl HP autosamler vials and analyzed by HPLC. HPLC analysis are performed as follows:
Ac-RYYRWK-NH2 (SEQ ID NO: 1) and Compound 1
The samples are analysed in the following order: blank, the peptide at 0.1 mg/mL, the plasma without the peptide, the three parallel samples for t=0, the three parallel samples for t=5 min. the three parallel samples for t=60 min. etc. And finally the three parallel samples for t=0 are repeated to make sure that there have been no degradation or other failure during the analyses. The sample concentrations (peak height in mAU) are plotted vs. time and fitted to a function describing a mono exponential decay (Excel). The half-lives of the peptides in plasma are presented in Table 7 as mean (n=3)±standard deviation.

Series [5] addresses T1, human ORL1 receptor (human, UniProt P41146 1-370). Kind of series: cell-based or functional assay.
In series [6] the target is T1, human ORL1 receptor. Kind of series: cell-based or functional assay. This is another data set of the same source.
In series [7] the target is T1, human ORL1 receptor. Kind of series: binding to hORL1 receptor expressed in CHO cells, one experiment.

T1 sequence (P41146 whole entry): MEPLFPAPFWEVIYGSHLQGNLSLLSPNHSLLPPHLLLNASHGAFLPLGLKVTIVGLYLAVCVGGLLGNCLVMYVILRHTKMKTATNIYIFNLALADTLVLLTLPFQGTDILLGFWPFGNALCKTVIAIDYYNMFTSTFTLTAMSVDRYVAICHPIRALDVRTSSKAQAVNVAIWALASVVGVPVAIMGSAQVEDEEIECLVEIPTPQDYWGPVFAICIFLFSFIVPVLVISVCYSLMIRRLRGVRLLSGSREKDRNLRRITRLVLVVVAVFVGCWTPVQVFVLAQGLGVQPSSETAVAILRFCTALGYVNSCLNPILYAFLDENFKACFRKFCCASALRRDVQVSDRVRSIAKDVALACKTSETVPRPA
Chain of hORL1 receptor (P41146 whole entry, the tested form may be a part): as the sequence (P41146 whole entry) above

Usually IC50 stands for the concentration needed to halve the response being measured. A lower IC50 goes with higher potency. As to `CC(=O)N[C@H](CCCCN)C(=O)N[C@H](CCCCN)C(=O)N[C@H](CCCCN)C(=O)N[C@H](CCCCN)C(=O)N[C@H](CCCCN)C(=O)N[C@H](CCCCN)C(=O)N[C@H](CCCCN)C(=O)N[C@H](Cc1c[nH]c2ccccc12)C(=O)N[C@H](CCCNC(=N)N)C(=O)N[C@H](Cc1ccc(O)cc1)C(=O)N[C@H](Cc1ccc(O)cc1)C(=O)N[C@H](CCCNC(=N)N)C(N)=O` [Compound 7, Ac-KKKKKKKWRYYR-NH2 (all D)] (HELM PEPTIDE1{[ac].[dK].[dK].[dK].[dK].[dK].[dK].[dK].[dW].[dR].[dY].[dY].[dR].[am]}$$$$V2.0), the IC50 on hORL1 receptor was more than 100 nM.

For the molecule `CC(C)C[C@H](NC(=O)[C@H](CCCCN)NC(=O)[C@H](CCCN=C(N)N)NC(=O)[C@H](C)NC(=O)[C@H](CO)NC(=O)[C@H](CCCCN)NC(=O)[C@H](CCCN=C(N)N)NC(=O)[C@H](C)NC(=O)CNC(=O)[C@@H](NC(=O)[C@H](Cc1ccccc1)NC(=O)CNC(=O)CNC(=O)[C@@H](N)Cc1ccccc1)[C@@H](C)O)C(=O)N[C@@H](C)C(=O)N[C@@H](CC(N)=O)C(=O)N[C@@H](CCC(N)=O)C(=O)O` [nociceptin, reference compound], the “heart rate, arterial pressure and RSNA” value in series [1] (i.v. bolus 30 and 100 nmol/kg, data not shown) is “rapid bradycardia, a hypotensive response and initial RSNA suppression”. The MAP response entry in [1] (i.v. infusion 11 nmol/kg/min, FIG. 2) is listed as “significantly decreases MAP”.

Regarding Ac-KKKKKKRYYRWK-NH2 [Compound 2], the “potency order for inhibition of electrically-induced contraction of the mouse vas deferens” value in the series on mouse vas deferens is reported as “nociceptin>Compound 1=Compound 2>>Ac-RYYRWK-NH2”.

“Ac-RYYRWK-NH2 [Compound CE1, Ac-Arg-Tyr-Tyr-Arg-Trp-Lys-NH2, reference compound]”: the “potency order for inhibition of electrically-induced contraction of the mouse vas deferens” value in the series on mouse vas deferens is listed as “nociceptin>Compound 1=Compound 2>>Ac-RYYRWK-NH2”. Besides, in series [2], the pA2 value is given as 7.8 (n = 4). Moreover, in series [3], the half-life at 0.1 mg/mL lay within 2 to 5 min. Also, the half-life at 0.1 mg/ml in [4] (37° C., mean (n=3) +/− deviation, read-out: T1/2 in min (degradation in human heparinised plasma)) is 50.7 min; in [4] (read-out: half life in plasma), less than 60 min.

In turn, “Compound 8 Ac-D-Arg-D-Tyr-D-Tyr-D-Arg-D-Trp-D-Lys-D-Lys-D-Lys-D-Lys-D-Lys-D-Lys-D-Lys-NH2 (peptide)” yielded an Efficacy EC50 (nM), inhibition of forskolin-induced cAMP formation with human ORL1 receptor [5] of 59 nM.

With H-NEEEEERYYRWKKKKKKK-NH2 [Compound 3 H-Asn-Glu-Glu-Glu-Glu-Glu-Arg-Tyr-Tyr-Arg-Trp-Lys-Lys-Lys-Lys-Lys-Lys-Lys-NH2], the “Efficacy EC50 (nM), inhibition of forskolin-induced cAMP formation” value (shortened to “Efficacy EC50 (nM), inhibition”) with human ORL1 receptor [6] is 83 nM. The same molecule returned an IC50 in the series with human ORL1 receptor [7] of 235 nM.

Take Ac-RYYRWKKKKKK-NH2 [Compound 12 Ac-Arg-Tyr-Tyr-Arg-Trp-Lys-Lys-Lys-Lys-Lys-Lys-NH2]: the 50% inhibitory concentration (IC50) in the series with human ORL1 receptor [7] turned out to be 0.15 nM.

Take Ac-RYNRWKKKKKKK-NH2 [Compound 4 Ac-Arg-Tyr-Asn-Arg-Trp-Lys-Lys-Lys-Lys-Lys-Lys-Lys-NH2]: the “Efficacy EC50 (nM), inhibition” value in the series with human ORL1 receptor [6] amounted to 91 nM.

As to Ac-KKKKKKKWRYYR-NH2 [Compound 6 Ac-Lys-Lys-Lys-Lys-Lys-Lys-Lys-Trp-Arg-Tyr-Tyr-Arg-NH2], in the series with human ORL1 receptor [6], the “Efficacy EC50 (nM), inhibition” value is 135 nM. Also, the IC50 with human ORL1 receptor [7] turned out to be 115 nM.

In the case of Ac-KYYRWKKKKKKK-NH2 [Compound 9 Ac-Lys-Tyr-Tyr-Arg-Trp-Lys-Lys-Lys-Lys-Lys-Lys-Lys-NH2], the “Efficacy EC50 (nM), inhibition” value with human ORL1 receptor [6] came to 0.035 nM. In the series with human ORL1 receptor [7], this molecule registered an IC50 of 3.7 nM.

In the series with human ORL1 receptor [7], Ac-RYYRWKAKKKKK-NH2 [Compound 11 Ac-Arg-Tyr-Tyr-Arg-Trp-Lys-Ala-Lys-Lys-Lys-Lys-Lys-NH2] had an IC50 of 0.27 nM.

Take Ac-RYYRIKKKKKKK-NH2 [Compound 10 Ac-Arg-Tyr-Tyr-Arg-Ile-Lys-Lys-Lys-Lys-Lys-Lys-Lys-NH2]: the IC50 in the series with human ORL1 receptor [7] is 0.51 nM.

B1: Compound CE1 Ac-Arg-Tyr-Tyr-Arg-Trp-Lys-NH2 (peptide)
peptide: Ac-RYYRWK-NH2
notes: Unconjugated comparison hexapeptide; also called Ac-RYYRWK-NH2
As to B1, in the series with human ORL1 receptor [6], the “Efficacy EC50 (nM), inhibition” value was 0.41 nM. The same molecule had an IC50 with human ORL1 receptor [7] of 0.31 nM.
